Results: publication PMC4053799, “RNA Detection in Live Bacterial Cells Using Fluorescent Protein Complementation Triggered by Interaction of Two RNA Aptamers with Two RNA-Binding Peptides”

Assays:
Details in all cases: label: none (ethidium bromide stain)
[1] = target: T1, HTLV-1 Rex peptide (HTLV-1, UniProt P0C206); experiment: EMSA; peptide in excess over RNA; ++; 50 mM Tris-HCl pH 8.0, 50 mM KCl, 30 °C 15 min; RNA refolded from 95 °C; 15% PAGE in Tris-borate-EDTA, ethidium bromide stain
T1 chain: MPKTRRRPRRSQRKRP

[2] = target: T2, bacteriophage λN peptide (bacteriophage lambda, UniProt P03045); experiment: EMSA; 50 mM Tris-HCl pH 8.0, 50 mM KCl, 30 °C 15 min; RNA refolded from 95 °C; 15% PAGE in Tris-borate-EDTA, ethidium bromide stain
T2 chain: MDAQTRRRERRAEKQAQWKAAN

[3] = target: T1, HTLV-1 Rex peptide; experiment: as above

B1: HTLV-1 Rex aptamer (structured_RNA)
RNA: UAGGCGACGGUACGCAAGUACUCUUGCGCCGGCCUA
[1]
  apparent K (half saturation): ~300 nM
[2]
  binding result: no binding

B2: HIV-1 Rev aptamer (structured_RNA)
RNA: GGCUGGACUCGUACUUCGGUACUGGAGAAACAGCC
[3]
  binding result: no binding
[2]
  binding result: no binding
